For assay [1], the target named is Dengue 2 (DENV2), whole virus (Dengue virus 2, strain New Guinea C (or …, UniProt P14340, strain)). Kind of assay: ELISA. To be noted: both partners purified. On the technique in general: An ELISA detects its analyte on a solid surface through an enzyme-linked reagent.
Assay [2] concerns the target Dengue 3 (DENV3) strain H87, whole virus (Dengue virus 3, strain H87, UniProt P27915, strain). Kind of assay: ELISA. Conditions: both partners purified.
Assay [3] has as its target Dengue 4 (DENV4) strain H241, whole virus (Dengue virus 4, strain H241, UniProt Q58HT7, strain). Description: ELISA. To be noted: both partners purified.
The target in assay [4] is Dengue 1 (DENV1) strain Hawaii, whole virus (Dengue virus 1, strain Hawaii, UniProt B5AGU1, strain). Kind of assay: ELISA. Conditions: both partners purified.
For assay [5], the target named is T1, prM protein of the non-mutated prM-E construct (pCMV-prM-E) (Dengue virus 2 strain New Guinea C, UniProt P14340).
T1 construct: also called prM of pCMV-prM-E; source: HEK293-T cells, transfected, in lysate
Kind of assay: Western blot. To be noted: one partner purified. On the technique in general: Immunoblotting shows a protein as a band on a membrane.

The target of assay [6] is T2, envelope (E) protein of DENV3 (Dengue virus 3, strain H87, UniProt P27915).
T2 construct: also called E glycoprotein; source: DENV3-infected Vero cells, in lysate
Kind of assay: Western blot. To be noted: one partner purified.

For another assay, the target named is prM protein of DENV3 (Dengue virus 3, strain H87, UniProt P27915). Kind of assay: Western blot. Conditions: one partner purified.
The target of assay [7] is T3, envelope (E) protein of DENV4 (Dengue virus 4, strain H241, UniProt Q58HT7).
T3 construct: also called E glycoprotein; source: DENV4-infected Vero cells, in lysate
Kind of assay: Western blot. Conditions: one partner purified.

B1: D29 Fab-IgG (antibody, V domains shown)
VH: QMQLVQSGGGVVQPGRSLRLSCAASGFTFSSYAMHWVRQAPGKGLEWVAGTSYDGSNKYYADSVKGRFTISGDNSKNTVYLQMNSLRAEDTAVYYCARAHSSGWYDAFDIWGQGTTVTVSS
VL: SYVLTQPPSVSVSPGQAASITCSGDKLGDKYAWWYQQKPGQSPVMVIHQDDKRPSGIPERFSGSNSGNTATLTITGTQAMDEADYYCQAWDRTTVVFGGGTKLTVL
notes: source: HEK 293 T cells (Fab from a non-immunized human Fab phage library, converted into human IgG format)
With B1, the Kd in assay [1] worked out at 0.0869 nM; in assay [2] it was 0.114 nM; in assay [3], 0.108 nM; in assay [4] it was 0.0905 nM. Moreover, the binding result (in assay [5]; in assay [6]; with prM protein of DENV3; in assay [7]) was “binds” throughout.

Usually Kd stands for the concentration at which binding is half-saturated.

For the origin of these results see publication PMC3317930, “A Human PrM Antibody That Recognizes a Novel Cryptic Epitope on Dengue E Glycoprotein” (PLoS ONE, 2012).
